Source: the DeepSol protein solubility set

Assay: soluble on expression in E. coli; label from the status in PepcDB or PDB records

Sequence: GPGSMNIQGMALHGHMKPVTMIKFNREGDLLFSTAKEPNVSVWYTKTGERLGTYDGHSAISACDVNNYSTLLVTGGMDFKAKLWCVETGEELANIMLRTPARAVGFSHDDNLLMVSTSRKMGQKSAVQLYNLPFLPPKDGYSIHPVNTVFNPCTEFVSENDDVTFAIWGPTNDTIYYSTSDGSVAILDVETMSTVCTHKPHEETINRISFDSNYYTLITASKDKTARLLDSRDLSVVQTYTSDVPVNDASISPRGDHVIIGGGMDAQDVTTQGGQTTFEVKFYHKVHEKQLGQVRCHFGTINSVCFFPDGRGFASGAFDGLVKLHRFDDKYSSTPGAIPLWTPEGI
- soluble on expression in E. coli: not soluble

Sequence: MYLTKEEEQILNGEAGETLRQAIQILVALGDIYGADRLIPIKSAQIAGVSYKTIGDAGLEWISDLEGQVKVPAILNPAGMDLEDWERLRISPEFAEKQKEIVQAYKKLGIRCECTCTPYTLEGFSVSYGDHLAWSESSAISYANSVIGARTNREGGPSALSAALLGKTANYGFHLDKNRVPEVSVSVECSLKESDYGALGYVAGKLIGNRVPIFQLRSKPEKDELKSLGAAMAASGAVALYHVKGVTPEACRMDFEEPEEKIIIERSQLDEVYESKGKEPELITIGCPHCSAAELKKAAELLKGKTVSKETWIFTSRELAERYPEYIRTIEESGAKVVCDTCMVVSPATNSYSCVMVNSGKAFAYVPGMCGAQSVYGNMEACINKATGGKERKAGDSHLEHHHHHH
- soluble on expression in E. coli: not soluble

Sequence: GSHMSVRIVDVREITKPISSPIRNAYIDFTKMTTSLVAVVTDVVREGKRVVGYGFNSNGRYGQGGLIRERFASRILEADPKKLLNEAGDNLDPDKVWAAMMINEKPGGHGERSVAVGTIDMAVWDAVAKIAGKPLFRLLAERHGVKANPRVFVYAAGGYYYPGKGLSMLRGEMRGYLDRGYNVVKMKIGGAPIEEDRMRIEAVLEEIGKDAQLAVDANGRFNLETGIAYAKMLRDYPLFWYEEVGDPLDYALQAALAEFYPGPMATGENLFSHQDARNLLRYGGMRPDRDWLQFDCALSYGLCEYQRTLEVLKTHGWSPSRCIPHGGHQMSLNIAAGLGLGGNESYPDLFQPYGGFPDGVRVENGHITMPDLPGIGFEGKSDLYKEMKALAE
- soluble on expression in E. coli: soluble

Sequence: MLNLCDEDFDAMELVEGALALNKAINPETQLEWAHIELARLLKEAELALVHERDEKARFEAFLRLFYQEWGFSGDREAYFDSRNAFIDQVLQRRKGIPVSLGSLLLYLGHKLGFPLNGISFPTQFLLSLNWSGERPIYLNPFNGEIVSQHTLQAWLVGHKGPLAKLKPQHLQSVDNPTIIGRWLALLKSALLREERYTLALRCTDLALTFVPDDPYEIRDRGFIYQQLQCHQIAISDYQYFIEHCPNDPAAELLKTQVNALSHDSQVTLHLEHHHHHH
- soluble on expression in E. coli: soluble

Sequence: ASTSRLDALPRVTCPNHPDAILVEDYRAGDMICPECGLVVGDRVIDVGSEWRTFSNDK
- soluble on expression in E. coli: soluble

Sequence: MSLSDFDYIQKNTPPEFPEKFKTALLPENIKKNRYSDVLANDDTRVKLNNNGYINANYIFQGRMIASQAPTIETIPDFLQMIIEQQVPIVIMLTKCKEKTRIKATPYWGYKSEGGKKVFGNYTVNTIDTLYDDVEEDKFMEDIQIRYLQIIYEDGVYSFIQIHYMGWPDFGVPLNPKDALDIVYIQYIIGTTSKFSNRNLVCVHCSAGVGRTGVYCLLSRIVEMVTYEILEKSETYSKQRSTSSSSKVREVEDRIEEILLSHPVISYEDCEVILPELVLSIRNERSKMVQTKEQYDFICETVNCFYEDALDSINQYYEVIDALTPLLQEKHSEIVQDFIKRNEEGHHHHHH
- soluble on expression in E. coli: soluble

Sequence: MRVVYTSPRIENLQFLKSEFSNYSVIVLEEPKNDLFHDVLEGKITVDLYVRKISTQFPLYTRKLIEMLKELKSREIMQVEPYLEEVERLKNFSEGDERVREMEKRVNALYIDYTESFLKSDFDEIVEKVLRFSEAEAERIMLRDEMRAKALDDLDEAVIEAGMNHIKLAEILDAESVRIPEIIAERLGTRYLENPGEKLLKAFIFEEDDDLRLLAARNLIFTSLLEKREMEPDFDGDYPHFTHEQKLVRFVDKLDYEKCRKLFYRFWSPR
- soluble on expression in E. coli: not soluble

Sequence: MGSDKIHHHHHHMERPILGKYIIKGKIILETGLRIGGQELGVNIGGIDNPVIRNPLTGEPYIPGSSVKGKMRSLMERLLNLDISGNKVRRHECEERECKVCRVFGSTSKEGNNIPSRLLVRDAFLTEDSKTKLLSMETDLPYTEWKTENALDRVTCKADPRSFERIPAGAEFEFEIIYTAENEKHIKEDLENIATALELLEDDYLGGNGSRGYGKVKFSIEKVIFKSADYYKGEGTPVEKEVKGGVEGFKKAIPEIVKG
- soluble on expression in E. coli: not soluble
